The experiment concerns the target human CX3CR1 with FLAG tag at N-terminus, stably expressed on HEK293T cells (Multispan) (human) (UniProt P49238). The experiment is described as follows: cell-based or functional assay.

EC80 of calcium flux data for one substance are collected here from patent US20130156761A1.

Chain of human CX3CR1 with FLAG tag at N-terminus, stably expressed on HEK293T cells (Multispan) (human) (P49238 whole entry): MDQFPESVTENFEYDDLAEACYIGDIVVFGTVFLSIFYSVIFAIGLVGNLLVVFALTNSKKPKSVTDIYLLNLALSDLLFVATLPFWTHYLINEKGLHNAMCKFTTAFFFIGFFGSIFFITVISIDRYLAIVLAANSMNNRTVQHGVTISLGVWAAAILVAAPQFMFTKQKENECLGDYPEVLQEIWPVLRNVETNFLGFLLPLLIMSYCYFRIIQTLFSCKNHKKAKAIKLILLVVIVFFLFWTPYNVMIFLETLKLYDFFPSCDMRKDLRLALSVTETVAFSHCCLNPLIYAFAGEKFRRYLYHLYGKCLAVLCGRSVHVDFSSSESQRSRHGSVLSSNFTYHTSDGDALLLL

For the substance “CX3CL1 (control agonist, Peprotech Cat#300-31) (from UniProt P78423 25-100) (ligand)”, the EC80 of calcium flux stood at 40 nM.
